Data: doi:10.1101/2022.09.13.507797 (bioRxiv, 2022)

B1: CspZ from B. burgdorferi B31 (CspZB31), untagged recombinant protein (natural protein, Borrelia burgdorferi strain B31)
chain: RLNQRNINELKIFVEKAKYYSIKLDAIYNECTGAYNDIMTYSEGTFSDQSKVNQAISIFKKDNKIVNKFKELEKIIEEYKPMFLSKLIDDFAIELDQAVDNDVSNARHVADSYKKLRKSVVLAYIESFDVISSKFVDSKFVEASKKFVNKAKEFVEENDLIALECIVKTIGDMVNDREINSRSRYNNFYKKEADFLGAAVELEGAYKAIKQTLL
B2: histidine-tagged CspZB31 (natural protein, Borrelia burgdorferi strain B31)
chain: B1 chain

How the values were obtained:
mouse factor H [1] = target: T1, mouse factor H (mouse, UniProt P06909 19-1234); experiment: SPR
mouse factor H [2] = target: T1, mouse factor H; experiment: ELISA
human factor H = human factor H (human, UniProt P08603 19-1231); experiment: ELISA
human factor H, sequence (P08603 19-1231): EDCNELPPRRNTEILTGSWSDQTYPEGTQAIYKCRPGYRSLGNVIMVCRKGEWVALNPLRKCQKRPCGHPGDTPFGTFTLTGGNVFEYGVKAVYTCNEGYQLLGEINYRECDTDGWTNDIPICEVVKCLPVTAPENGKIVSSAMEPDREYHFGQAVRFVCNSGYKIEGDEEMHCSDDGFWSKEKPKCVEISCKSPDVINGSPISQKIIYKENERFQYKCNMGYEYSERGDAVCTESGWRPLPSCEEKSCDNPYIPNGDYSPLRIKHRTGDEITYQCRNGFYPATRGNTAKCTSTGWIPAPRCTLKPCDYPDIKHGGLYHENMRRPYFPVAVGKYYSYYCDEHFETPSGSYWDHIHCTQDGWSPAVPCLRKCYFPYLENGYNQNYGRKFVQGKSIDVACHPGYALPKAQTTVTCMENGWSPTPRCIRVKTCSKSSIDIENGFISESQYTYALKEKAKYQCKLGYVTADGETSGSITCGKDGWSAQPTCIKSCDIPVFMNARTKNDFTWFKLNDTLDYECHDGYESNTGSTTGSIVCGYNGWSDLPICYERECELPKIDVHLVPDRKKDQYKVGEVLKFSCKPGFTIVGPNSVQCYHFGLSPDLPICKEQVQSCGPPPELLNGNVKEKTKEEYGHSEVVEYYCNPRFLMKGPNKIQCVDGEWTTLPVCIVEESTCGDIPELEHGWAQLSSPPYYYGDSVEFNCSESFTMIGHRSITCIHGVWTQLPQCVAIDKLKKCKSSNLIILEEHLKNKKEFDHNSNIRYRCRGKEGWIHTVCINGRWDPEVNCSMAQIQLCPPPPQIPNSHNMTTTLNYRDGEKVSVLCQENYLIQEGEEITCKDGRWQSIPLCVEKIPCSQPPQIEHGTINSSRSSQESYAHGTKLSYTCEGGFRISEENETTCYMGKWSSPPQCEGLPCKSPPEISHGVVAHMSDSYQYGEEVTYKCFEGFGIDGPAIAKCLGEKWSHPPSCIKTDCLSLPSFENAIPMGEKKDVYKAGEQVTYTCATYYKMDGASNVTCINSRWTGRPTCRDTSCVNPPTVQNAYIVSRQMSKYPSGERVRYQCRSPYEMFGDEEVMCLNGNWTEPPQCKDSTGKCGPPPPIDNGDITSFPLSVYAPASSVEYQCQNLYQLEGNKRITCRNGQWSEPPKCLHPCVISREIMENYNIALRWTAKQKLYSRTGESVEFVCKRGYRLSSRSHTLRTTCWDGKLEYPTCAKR

T1 sequence (P06909 19-1234): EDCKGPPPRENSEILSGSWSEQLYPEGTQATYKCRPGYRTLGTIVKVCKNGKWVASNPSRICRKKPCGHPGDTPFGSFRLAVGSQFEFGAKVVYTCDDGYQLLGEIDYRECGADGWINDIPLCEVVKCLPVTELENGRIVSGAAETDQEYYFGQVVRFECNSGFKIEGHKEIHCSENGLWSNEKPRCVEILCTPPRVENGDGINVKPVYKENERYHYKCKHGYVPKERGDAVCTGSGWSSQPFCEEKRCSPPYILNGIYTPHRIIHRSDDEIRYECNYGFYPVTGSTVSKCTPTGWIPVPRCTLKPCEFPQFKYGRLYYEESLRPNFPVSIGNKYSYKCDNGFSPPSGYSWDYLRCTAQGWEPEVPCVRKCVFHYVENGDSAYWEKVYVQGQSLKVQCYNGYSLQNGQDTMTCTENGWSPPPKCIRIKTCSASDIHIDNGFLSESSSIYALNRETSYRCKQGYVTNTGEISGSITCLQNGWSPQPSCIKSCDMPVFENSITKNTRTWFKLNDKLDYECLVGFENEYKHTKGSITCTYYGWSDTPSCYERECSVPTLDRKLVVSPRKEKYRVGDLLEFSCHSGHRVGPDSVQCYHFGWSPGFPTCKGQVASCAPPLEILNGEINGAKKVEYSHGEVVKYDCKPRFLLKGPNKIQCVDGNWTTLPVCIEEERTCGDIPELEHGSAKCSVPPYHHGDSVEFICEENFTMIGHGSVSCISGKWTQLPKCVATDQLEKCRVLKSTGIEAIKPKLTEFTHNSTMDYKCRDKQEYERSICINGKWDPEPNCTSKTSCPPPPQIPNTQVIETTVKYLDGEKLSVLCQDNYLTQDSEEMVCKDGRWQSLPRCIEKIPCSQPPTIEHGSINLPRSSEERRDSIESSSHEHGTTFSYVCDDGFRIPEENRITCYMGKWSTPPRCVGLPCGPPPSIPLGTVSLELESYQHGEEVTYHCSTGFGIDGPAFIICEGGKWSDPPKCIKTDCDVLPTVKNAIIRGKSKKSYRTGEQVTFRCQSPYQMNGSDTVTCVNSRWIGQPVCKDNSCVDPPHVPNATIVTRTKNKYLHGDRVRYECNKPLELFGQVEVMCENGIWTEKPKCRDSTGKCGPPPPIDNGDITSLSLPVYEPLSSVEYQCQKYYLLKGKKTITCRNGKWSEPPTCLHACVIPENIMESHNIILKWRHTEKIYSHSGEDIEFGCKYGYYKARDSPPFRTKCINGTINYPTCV

Row | Binder | binding result (mouse factor H [1]) | binding result (mouse factor H [2]) | binding result (human factor H)
1 | B1 | binds | – | –
2 | B2 | – | binds | binds
